Laboratory results taken from US20240270846A1 (published 2024).

Target: T1, CD3 epsilon homodimer protein (UniProt P07766 23-126)
T1 construct: Immobilized on Sensor chip CM4 by amine coupling; construct not described; also called CD3 (CD3 epsilon)
Assay: SPR Biacore T200, CD3 epsilon homodimer on CM4 chip, antibody as analyte;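 further: Amine-coupled CD3 epsilon homodimer, run at 25 °C in HBS-EP+ buffer, ratio is bound amount of each single-residue H chain variant over that of the parent antibody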

T1 sequence (P07766 23-126): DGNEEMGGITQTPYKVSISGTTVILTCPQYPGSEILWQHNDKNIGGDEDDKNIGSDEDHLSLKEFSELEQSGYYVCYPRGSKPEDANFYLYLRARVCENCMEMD

B1: CE115HA000 H96S one-arm antibody (antibody, human IgG1, kappa, L234A L235A, N297A, name in Kabat numbering)
heavy: QVQLVESGGGVVQPGRSLRLSCAASGFTFSNAWMHWVRQAPGKGLEWVAQIKAKSNNYATYYAESVKGRFTISRDDSKNSLYLQMNSLKTEDTAVYYCRYVSYGAYYGVDAWGQGTTVTVSSASTKGPSVFPLAPSSKSTSGGTAALGCLVKDYFPEPVTVSWNSGALTSGVHTFPAVLQSSGLYSLSSVVTVPSSSLGTQTYICNVNHKPSNTKVDKKVEPKSCDKTHTCPPCPAPEAAGGPSVFLFPPKPKDTLMISRTPEVTCVVVDVSHEDPEVKFNWYVDGVEVHNAKTKPREEQYASTYRVVSVLTVLHQDWLNGKEYKCKVSNKALPAPIEKTISKAKGQPREPQVYTLPPSRCELTKNQVSLSCAVKGFYPSDIAVEWESNGQPENNYKTTPPVLDSDGSFFLVSKLTVDKSRWQQGNVFSCSVMHEALHNHYTQKSLSLSPDYKDDDDK
chain: EPKSSDKTHTCPPCPAPELLGGPSVFLFPPKPKDTLMISRTPEVTCVVVDVSHEDPEVKFNWYVDGVEVHNAKTKPREEQYNSTYRVVSVLTVLHQDWLNGKEYKCKVSNKALPAPIEKTISKAKGQPREPQVCTLPPSRDELTKNQVSLWCLVKGFYPSDIAVEWESNGQPENNYKTTPPVLDSDGSFFLYSKLTVDKSRWQQGNVFSCSVMHEALHNRYTQKSLSLSP
light: DIVMTQSPLSLPVTPGEPASISCRSSQSLVHSNRNTYLHWYQQKPGQAPRLLIYKVSNRFSGVPDRFSGSGSGTDFTLKISRVEAEDVGVYYCGQGTQVPYTFGQGTKLEIKRTVAAPSVFIFPPSDEQLKSGTASVVCLLNNFYPREAKVQWKVDNALQSGNSQESVTEQDSKDSTYSLSSTLTLSKADYEKHKVYACEVTHQGLSSPVTKSFNRGEC
notes: one-arm antibody (one Fab)
  ratio of amounts bound (Y/X vs CE115HA000): 0.44

B2: CE115HA000 H96Y one-arm antibody (antibody, human IgG1, kappa, L234A L235A, N297A, name in Kabat numbering)
heavy: QVQLVESGGGVVQPGRSLRLSCAASGFTFSNAWMHWVRQAPGKGLEWVAQIKAKSNNYATYYAESVKGRFTISRDDSKNSLYLQMNSLKTEDTAVYYCRYVYYGAYYGVDAWGQGTTVTVSSASTKGPSVFPLAPSSKSTSGGTAALGCLVKDYFPEPVTVSWNSGALTSGVHTFPAVLQSSGLYSLSSVVTVPSSSLGTQTYICNVNHKPSNTKVDKKVEPKSCDKTHTCPPCPAPEAAGGPSVFLFPPKPKDTLMISRTPEVTCVVVDVSHEDPEVKFNWYVDGVEVHNAKTKPREEQYASTYRVVSVLTVLHQDWLNGKEYKCKVSNKALPAPIEKTISKAKGQPREPQVYTLPPSRCELTKNQVSLSCAVKGFYPSDIAVEWESNGQPENNYKTTPPVLDSDGSFFLVSKLTVDKSRWQQGNVFSCSVMHEALHNHYTQKSLSLSPDYKDDDDK
chain: EPKSSDKTHTCPPCPAPELLGGPSVFLFPPKPKDTLMISRTPEVTCVVVDVSHEDPEVKFNWYVDGVEVHNAKTKPREEQYNSTYRVVSVLTVLHQDWLNGKEYKCKVSNKALPAPIEKTISKAKGQPREPQVCTLPPSRDELTKNQVSLWCLVKGFYPSDIAVEWESNGQPENNYKTTPPVLDSDGSFFLYSKLTVDKSRWQQGNVFSCSVMHEALHNRYTQKSLSLSP
light: DIVMTQSPLSLPVTPGEPASISCRSSQSLVHSNRNTYLHWYQQKPGQAPRLLIYKVSNRFSGVPDRFSGSGSGTDFTLKISRVEAEDVGVYYCGQGTQVPYTFGQGTKLEIKRTVAAPSVFIFPPSDEQLKSGTASVVCLLNNFYPREAKVQWKVDNALQSGNSQESVTEQDSKDSTYSLSSTLTLSKADYEKHKVYACEVTHQGLSSPVTKSFNRGEC
notes: one-arm antibody (one Fab)
  ratio of amounts bound (Y/X vs CE115HA000): 0.17
